The results in this text go back to KR20200072008A (dated 2020).

The assay addresses SNAP25 197 from lysate of BoNT/A treated N2-42F cells (mouse, UniProt P60879 1-197). Put plainly: sandwich ELISA; detection of captured SNAP25 197 from N2-42F lysate. (In general: ELISA stands for enzyme-linked immunosorbent assay.)

SNAP25 197 from lysate of BoNT/A treated N2-42F cells, sequence (P60879 1-197 limits assumed): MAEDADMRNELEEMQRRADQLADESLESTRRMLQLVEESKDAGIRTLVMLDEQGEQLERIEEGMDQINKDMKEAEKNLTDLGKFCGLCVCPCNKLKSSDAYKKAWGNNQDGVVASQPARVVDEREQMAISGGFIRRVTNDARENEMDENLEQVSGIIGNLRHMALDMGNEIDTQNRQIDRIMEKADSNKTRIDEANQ

B1: C16 IgG-HRP 접합체 (antibody, V domains shown)
VH: EVQLQQSGAELARPGASVQMSCKAFGYTFTNYTMHWVRQRPGQGLEWIGFINPSSDYTNYNQKFKDKATLSADKSSSTAYMQLSSLTSEDSAVYYCARRIFYNGRTYAAMDYWGQGTSVTVSS
VL: DIVMTQSPASLAVSLGQRATISCRASKSVSSSGYSYMHWYQQKPGQPPKLLIYLASNLESGVPARFSGSGSGTDFTLNIHPVEEEDAATYYCQHSRELPLTFGAGTKLELK
For B1, the binding result is given as “binds”.
